Reference: US20220073608A1 (JIANGSU HUAIYU PHARMACEUTICAL, published 2022)

Tests used:
[1] = target: T1, human SEMA4D, full length, on CHO-K1 cells (CHO-K1 hSEMA4D) (human, UniProt Q92854 22-862); assay: FACS, CHO-K1 hSEMA4D cells; Ab 0.00427 nM
T1 construct: whole, on cells; also called human SEMA4D recombinant cells
T1 sequence (looked up): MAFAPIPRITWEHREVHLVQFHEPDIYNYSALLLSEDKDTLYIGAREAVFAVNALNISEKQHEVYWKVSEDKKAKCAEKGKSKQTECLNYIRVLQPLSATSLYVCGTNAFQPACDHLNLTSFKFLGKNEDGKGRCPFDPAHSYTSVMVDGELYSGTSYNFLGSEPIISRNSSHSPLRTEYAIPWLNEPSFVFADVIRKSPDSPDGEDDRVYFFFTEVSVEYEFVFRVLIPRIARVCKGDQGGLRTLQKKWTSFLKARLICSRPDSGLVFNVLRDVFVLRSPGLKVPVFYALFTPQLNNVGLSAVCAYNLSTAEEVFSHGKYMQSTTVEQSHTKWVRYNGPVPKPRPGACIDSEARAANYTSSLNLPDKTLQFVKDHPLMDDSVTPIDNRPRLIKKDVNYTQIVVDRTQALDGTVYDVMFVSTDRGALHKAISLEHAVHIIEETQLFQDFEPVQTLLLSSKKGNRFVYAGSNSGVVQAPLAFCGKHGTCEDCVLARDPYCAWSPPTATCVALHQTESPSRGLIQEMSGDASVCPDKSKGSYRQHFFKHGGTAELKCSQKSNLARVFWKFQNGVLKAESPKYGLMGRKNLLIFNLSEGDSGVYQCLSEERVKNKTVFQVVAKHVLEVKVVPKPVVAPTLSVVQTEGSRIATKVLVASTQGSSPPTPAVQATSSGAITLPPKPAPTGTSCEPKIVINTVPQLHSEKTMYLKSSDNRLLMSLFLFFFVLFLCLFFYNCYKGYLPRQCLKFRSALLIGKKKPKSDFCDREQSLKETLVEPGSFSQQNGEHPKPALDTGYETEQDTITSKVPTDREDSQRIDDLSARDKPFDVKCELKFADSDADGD
Protocol: (§1) The medium was aspirated, the cells were washed once with PBS buffer (purchased from Invitrogen), and then treated with cell dissociation fluid (TrypLE™ Express Enzyme, purchased from Life technology), and the cells were collected. After the cells counted, the cells were washed once with PBS phosphate buffer, and diluted to 3×10⁶ cells per milliliter, and added to the 96-well FACS reaction plate as 100 μL per well. 2% (w/w) fetal calf serum was added to PBS phosphate buffer as FACS buffer, with which the cells were washed once by centrifugation at 2000 rpm 4° C. 100 μL of diluted and purified leading antibodies was added to each well and the plate was incubated for 1 hour on ice. […] Cells were washed 2 times by centrifugation with FACS buffer. The cells were suspended with 200 μL of FACS buffer, and FACS (FACS Verse, purchased from BD) was used to detect and analyze the results.

[2] = target: T1, human SEMA4D, full length, on CHO-K1 …; assay: FACS, CHO-K1 hSEMA4D cells; Ab 2.67 nM
Protocol: as §1

[3] = target: T2, hSEMA4D ECD-His (His-tagged human SEMA4D protein extracellular domain, Met22-Arg734) (human, UniProt Q92854 22-734); assay: ELISA, coated hSEMA4D ECD-His; Ab 0.00213 nM
T2 construct: Expressed in CHO-S cells, purified on Ni column; also called protein immunogen; immunogen A; not shown: His tag of the pCP vector
T2 sequence: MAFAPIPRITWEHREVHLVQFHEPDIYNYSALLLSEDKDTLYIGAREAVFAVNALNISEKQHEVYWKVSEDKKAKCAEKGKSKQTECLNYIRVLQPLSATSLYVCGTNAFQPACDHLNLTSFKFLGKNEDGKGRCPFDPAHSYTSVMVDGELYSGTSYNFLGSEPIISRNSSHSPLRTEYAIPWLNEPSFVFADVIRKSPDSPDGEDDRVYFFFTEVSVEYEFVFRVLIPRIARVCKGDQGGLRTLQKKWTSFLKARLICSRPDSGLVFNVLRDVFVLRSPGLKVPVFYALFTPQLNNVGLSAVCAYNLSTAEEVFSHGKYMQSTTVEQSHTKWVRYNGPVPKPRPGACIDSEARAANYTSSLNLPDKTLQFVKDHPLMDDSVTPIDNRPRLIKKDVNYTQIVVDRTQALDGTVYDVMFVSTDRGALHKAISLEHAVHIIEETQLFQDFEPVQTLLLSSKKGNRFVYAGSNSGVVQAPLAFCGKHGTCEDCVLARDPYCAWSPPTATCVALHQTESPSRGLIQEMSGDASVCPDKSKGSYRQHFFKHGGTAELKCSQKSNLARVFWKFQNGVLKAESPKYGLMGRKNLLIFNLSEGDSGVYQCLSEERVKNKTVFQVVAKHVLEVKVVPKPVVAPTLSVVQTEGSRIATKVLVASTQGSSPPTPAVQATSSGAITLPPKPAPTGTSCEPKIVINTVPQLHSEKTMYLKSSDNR
Protocol: First, hSEMA4D ECD-His was diluted with PBS to a final concentration of 1.0 μg/mL, and then was added to a 96-well ELISA plate, 100 μL per well, sealed with plastic film and incubated overnight at 4° C. On the next day, the plate was washed with a plate washing solution, that is, PBS buffer containing 0.05% (v/v) Tween20, for 4 times, and added with blocking solution, that is, PBS buffer containing 0.05% (v/v) Tween20 and 2% (w/w) BSA, blocked at 37° C. for 1 hour. The blocking solution was poured out and the plate was washed 4 times with the plate washing solution. 100 μL of the purified leading antibodies obtained in Examples 1 and 2 was added to each well. After incubation at 37° C. for 1 hour, the plate was washed 4 times with a plate washing solution. 100 μL of horseradish peroxidase (HRP) labeled secondary antibody (purchased from Sigma) was added at a dilution of 1:10000 to each well, and the plate was incubated at 37° C. for 1 hour, and washed 4 times with a plate washing solution. 100 μL TMB substrate was added to each well, and the plate was incubated at room temperature for 5 minutes, and added with 100 μL stop solution (1.0N HCl) to each well. A microplate reader (SpectraMax M5e, purchased from Molecular Device) was used to read the A450 nm value. […] Wherein, the data in the table was the OD450 nm value.

B1: 32C8F10 (antibody, V domains shown)
VH: EVQLQQSGAELVRPGASVKLSCTASGFNIKDEYIHWVKQRPEQGLEWIGWIDPANGHTEYASRFQAKATITADTSSNTAYLQLSSLTSEDTAVYYCTTGDYDGFAYWGQGTLVTVST
VL: QIVLTQSPAIMSASPGEKVTISCSARSSVSYMYWYQQKPGSSPKPWIYRTSNLASGVPARFSGSGSGTSYSLTISSMEAEDAATYYCQHYHTYPYTFGGGTKLEIK
notes: Mouse monoclonal antibody purified from hybridoma supernatant on protein A
Q: Which results are given for B1?
A: MFI [1]: 86.2; MFI [2]: 6170; OD450 nm [3]: 0.0858

B2: 31C11G2 (antibody, V domains shown)
VH: EVQLQQSGAELVRPGASVKLSCTASGFNIKDEYIHWVKQRPEQGLEWIGWIDPANGHTEYASRFQAKATITADTSSNTAYLQLSSLTSEDTAVYYCTTGDYDGFVYWGQGTLVTVST
VL: QIVLTQSPAIMSASPGEKVTIFCSARSSVSYMYWYQQKPGSSPKPWIYRTSNLASGVPARFSGSGSGTSYSLTISSMEAEDAATYYCQHYHTYPYTFGGGTKLEIK
notes: as for B1
Q: How did the MFI [1] turn out when B2 was run?
A: Its MFI is 87.3.

Q: And the MFI [2]?
A: The MFI was 5970.

Q: And the OD450 nm [3]?
A: Its OD450 nm is 0.141.

B3: 31G10C5 (antibody, V domains shown)
VH: EVQLQQSGAELVRPGASVKLSCTASGFNIKDDYIHWVKQRPEQGLEWIGWIDPANGHIEYASNFQAKATITADTSSNTAYLQLSSLTSEDTAVYYCTTGDYDGFTYWGQGTLVTVST
VL: QIVLTQSPAIMSASPGEKVTISCSARSSVSYMYWYQQKPGSSPKPWIYRTSNLASGVPARFSGSGSGTSYSLTISSMEAEDAATYYCQHYHTYPYTFGGGTKLEIK
notes: as for B1
Q: For B3, which MFI [1] is on record?
A: Its MFI is 85.5.

Q: What about the MFI [2] of the same binder?
A: Its MFI is 5860.

Q: What about the OD450 nm [3] of the same binder?
A: The OD450 nm was 0.109.

B4: 37C4F7 (antibody, V domains shown)
VH: EFQLQQSGPEVVKPGASVKISCKASGYSFTDYNMNWMKQSKGKSLEWIGVINPNYGTTTYNQNFKGKATLTVDQSSSTAYMQLNSLTSEDSAVYYCARDMYYVYAYYTMDYWGQGTSVTVSS
VL: DVVMTQTPLSLPVSLGDQASISCRSSQSLVHSNGHTYLHWYLQRPGQSPTLLIYKVSNRFSGVPDRFSGSGSGTDFTLKISRVEAEDLGVYFCSQGTHVPWTFGGGTKLEIK
notes: as for B1
Q: How did the MFI [1] turn out when B4 was run?
A: Its MFI is 45.4.

Q: What about the MFI [2] of the same binder?
A: The MFI was 2340.

Q: And the OD450 nm [3]?
A: The OD450 nm was 0.0673.

B5: 38H2E3 (antibody, V domains shown)
VH: EFQLQQSGPEVVKPGASVKISCKASGYSFTDYNMNWMKQSKGKSLEWIGVISPDYGTTTYNQNFKDKATLTVDQSSSTAYMQLNSLTSEDSAVYYCAKDMYYVYAYYTMDYWGHGTSVTVSS
VL: DVVMTQTPLSLPVSLGDQASISCRSSQSLVHSNGHTYLHWYLQRPGQSPTLLIYKVSNRFSGVPDRVSGSGSGTDFTLKISRVEAEDLGVYFCSQGTHVPRTFGGGTKLEIK
notes: as for B1
Q: How did the MFI [1] turn out when B5 was run?
A: Its MFI is 45.4.

Q: What about the MFI [2] of the same binder?
A: The MFI was 2370.

Q: What about the OD450 nm [3] of the same binder?
A: The OD450 nm was 0.0738.

B6: 37F11F9 (antibody, V domains shown)
VH: EVQLQQSGPVLVKPGASVKMSCKASGYTFTDYYMNWVKQSHGKSLEWIGLINPYSGGSTFNQKFKAKATLTVDKSSSSAYMDLNSLTSEDSAVYYCARVGDGYYGVTHGMDYWGQGTSVTVSS
VL: DIVMTPSQKFMSTTVGDRVSITCKASQNVGTAVAWYQQKPGQSPTILIYSASNRYTGVPDRFTGSGSGTDFTLTISNMKSEDLADYFCQQYYIYPFTFAAGTKLELK
notes: as for B1
Q: With B6 as the binder, how does the MFI [1] read?
A: Its MFI is 51.

Q: What about the MFI [2] of the same binder?
A: The MFI was 2880.

Q: What about the OD450 nm [3] of the same binder?
A: Its OD450 nm is 0.0929.

B7: 42B7G2 (antibody, V domains shown)
VH: QVQLQQSGAELARPGASVKLSCKASGYTFTDYGISWVKQRTGQGLEWIGEIYLRNDNSYYNEKFKGKATLTADKSSNTAYMELRSLTSEDSAVYFCARWGDHGNNYEDAMDYWGQGTSVTVSS
VL: DIVLTQSPASLAMSLGKRATISCRASESVSIIGSNLIHWYQQKPGQPPKLLIYHASNLETGVPARFSGSGSRTDFTLTIDPVEEDDVAIYYCLQSRKVPYTFGGGTKLEIK
notes: as for B1
Q: Which results are given for B7?
A: MFI [1]: 68.9; MFI [2]: 3790; OD450 nm [3]: 0.11
